# Target: CanA from Pyrodictium abyssi (recombinant full-length CanA) (Pyrodictium abyssi)
# Experiment: 1H NMR signal decay during polymerization; 0.97 mM CanA in 50 mM Tris-HCl, 50 mM NaCl, pH 7.5, 10% D2O, 0.4 mM DSS; polymerization started by MgCl2 and CaCl2 to 20 mM each; 298 K; about 42 h; intensity of -0.6 to 0.1 ppm fitted by single or double exponential
substance,measurement,value
CanA from Pyrodictium abyssi (recombinant full-length CanA) (natural protein),critical CanA concentration for polymerization,2.48 µM

# Source: publication PMC12326000
